In patent US20140147444A1 (published 2014):
Residue numbers refer to the chain shown, from its start. In names and notes the source's numbering stands.

T1: human OPGbp [143-317] (human, UniProt O14788 143-317)
T1 construct: also called OPGL
T1 sequence (looked up): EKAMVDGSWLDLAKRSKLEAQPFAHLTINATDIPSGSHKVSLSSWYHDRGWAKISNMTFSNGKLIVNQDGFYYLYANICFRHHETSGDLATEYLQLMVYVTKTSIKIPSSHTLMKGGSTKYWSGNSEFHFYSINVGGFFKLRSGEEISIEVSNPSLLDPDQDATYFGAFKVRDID

B1: “AT” antibody variant N98A (heavy chain CDR3) (antibody, name in Kabat numbering, V domains shown)
VH: QVQLVQSGAEVRKPGASVKVSCKASGYDFSNYAIHWVRQAPGQRLEWMGWINAGNGNTKFSQKFQGRITVTRDTAASTAYMELRSLRSEDTAVYYCARDSSAMVRGIIIAYYFDYWGQGTLVTVSS
VL: EIVMTQSPSSLSASVGDRVTITCRASQSISRYLNWYQLKPGKAPRLLIYGASSLQSGVPSRFSGSGSGAEFTLTISSLQPEDIATYYCQHTRAFGQGTKVEIKR
notes: not shown: human IgG1 CH1, hinge, CH2 and CH3
B2: “AT” antibody variant S96A (heavy chain CDR3) (antibody, name in Kabat numbering, V domains shown)
VH: B1 VH with S100A, A102N
VL: B1 VL
notes: as for B1
B3: “AT” antibody variant S96A, N98A (heavy chain CDR3) (antibody, name in Kabat numbering, V domains shown)
VH: B1 VH with S100A
VL: B1 VL
notes: as for B1
B4: “AT” antibody variant S96A, S97A (heavy chain CDR3) (antibody, name in Kabat numbering, V domains shown)
VH: B1 VH with S100A, S101A, A102N
VL: B1 VL
notes: as for B1
B5: “AT” antibody variant S96A, S97A, N98A (heavy chain CDR3) (antibody, name in Kabat numbering, V domains shown)
VH: B1 VH with S100A, S101A
VL: B1 VL
notes: as for B1
B6: “AT” antibody variant S97A (heavy chain CDR3) (antibody, name in Kabat numbering, V domains shown)
VH: B1 VH with S101A, A102N
VL: B1 VL
notes: as for B1
B7: “AT” antibody variant S97A, N98A (heavy chain CDR3) (antibody, name in Kabat numbering, V domains shown)
VH: B1 VH with S101A
VL: B1 VL
notes: as for B1
B8: “AT” antibody variant S97D (heavy chain CDR3) (antibody, name in Kabat numbering, V domains shown)
VH: B1 VH with S101D, A102N
VL: B1 VL
notes: as for B1
B9: “AT” antibody variant S97E (heavy chain CDR3) (antibody, name in Kabat numbering, V domains shown)
VH: B1 VH with S101E, A102N
VL: B1 VL
notes: as for B1
B10: “AT” antibody variant S97F (heavy chain CDR3) (antibody, name in Kabat numbering, V domains shown)
VH: B1 VH with S101F, A102N
VL: B1 VL
notes: as for B1
B11: “AT” antibody variant S97G (heavy chain CDR3) (antibody, name in Kabat numbering, V domains shown)
VH: B1 VH with S101G, A102N
VL: B1 VL
notes: as for B1
B12: “AT” antibody variant S97H (heavy chain CDR3) (antibody, name in Kabat numbering, V domains shown)
VH: B1 VH with S101H, A102N
VL: B1 VL
notes: as for B1
B13: “AT” antibody variant S97I (heavy chain CDR3) (antibody, name in Kabat numbering, V domains shown)
VH: B1 VH with S101I, A102N
VL: B1 VL
notes: as for B1
B14: “AT” antibody variant S97K (heavy chain CDR3) (antibody, name in Kabat numbering, V domains shown)
VH: B1 VH with S101K, A102N
VL: B1 VL
notes: as for B1
B15: “AT” antibody variant S97L (heavy chain CDR3) (antibody, name in Kabat numbering, V domains shown)
VH: B1 VH with S101L, A102N
VL: B1 VL
notes: as for B1
B16: “AT” antibody variant S97M (heavy chain CDR3) (antibody, name in Kabat numbering, V domains shown)
VH: B1 VH with S101M, A102N
VL: B1 VL
notes: as for B1
B17: “AT” antibody variant S97N (heavy chain CDR3) (antibody, name in Kabat numbering, V domains shown)
VH: B1 VH with S101N, A102N
VL: B1 VL
notes: as for B1
B18: “AT” antibody variant S97P (heavy chain CDR3) (antibody, name in Kabat numbering, V domains shown)
VH: B1 VH with S101P, A102N
VL: B1 VL
notes: as for B1
B19: “AT” antibody variant S97Q (heavy chain CDR3) (antibody, name in Kabat numbering, V domains shown)
VH: B1 VH with S101Q, A102N
VL: B1 VL
notes: as for B1
B20: “AT” antibody variant S97R (heavy chain CDR3) (antibody, name in Kabat numbering, V domains shown)
VH: B1 VH with S101R, A102N
VL: B1 VL
notes: as for B1
B21: “AT” antibody variant S97T (heavy chain CDR3) (antibody, name in Kabat numbering, V domains shown)
VH: B1 VH with S101T, A102N
VL: B1 VL
notes: as for B1
B22: “AT” antibody variant S97V (heavy chain CDR3) (antibody, name in Kabat numbering, V domains shown)
VH: B1 VH with S101V, A102N
VL: B1 VL
notes: as for B1
B23: “AT” antibody variant S97W (heavy chain CDR3) (antibody, name in Kabat numbering, V domains shown)
VH: B1 VH with S101W, A102N
VL: B1 VL
notes: as for B1
B24: “AT” antibody variant S97Y (heavy chain CDR3) (antibody, name in Kabat numbering, V domains shown)
VH: B1 VH with S101Y, A102N
VL: B1 VL
notes: as for B1
B25: “AT” antibody variant N98R (heavy chain CDR3) (antibody, name in Kabat numbering, V domains shown)
VH: B1 VH with A102R
VL: B1 VL
notes: as for B1
B26: “AT” antibody variant N98S (heavy chain CDR3) (antibody, name in Kabat numbering, V domains shown)
VH: B1 VH with A102S
VL: B1 VL
notes: as for B1
B27: “AT” antibody variant N98V (heavy chain CDR3) (antibody, name in Kabat numbering, V domains shown)
VH: B1 VH with A102V
VL: B1 VL
notes: as for B1
B28: “AT” antibody variant N98W (heavy chain CDR3) (antibody, name in Kabat numbering, V domains shown)
VH: B1 VH with A102W
VL: B1 VL
notes: as for B1
B29: “AT” antibody variant N98Y (heavy chain CDR3) (antibody, name in Kabat numbering, V domains shown)
VH: B1 VH with A102Y
VL: B1 VL
notes: as for B1

The binders below were run against T1, human OPGbp [143-317] (assay: SPR (BIAcore), immobilized OPGbp [143-317]).

First: B1
Second: B2
The Kd of the first is 3.7-fold lower: 0.67 nM for the first, 2.5 nM for the second. The first binds more tightly here.

Going from B4 to B6, the Kd falls from 8.9 nM to 2.9 nM (3.1-fold). The second binds more tightly here.

B1 and B2 are within 1.5-fold of each other in koff: 0.0009 s⁻¹ for the first, 0.00064 s⁻¹ for the second.

First: B4
Second: B6
The koff of the first is 1.9-fold higher: 0.00284 s⁻¹ for the first, 0.0015 s⁻¹ for the second.

Compared with B1, B2 is 5-fold lower in kon: 1.3e+06 M⁻¹ s⁻¹ for the first, 260000 M⁻¹ s⁻¹ for the second.

First: B4
Second: B6
The kon of the first is 1.7-fold lower: 317000 M⁻¹ s⁻¹ for the first, 530000 M⁻¹ s⁻¹ for the second.

B3: no binding.
B5: no binding.
B7: no binding.

Biological target: T1, human OPGbp [143-317]
Assay: SPR (BIAcore), immobilized OPGbp [143-317]
Remark: another data set of the same source

B8: no binding.
B10: no binding.
B11: no binding.
B23: no binding.
B24: no binding.

Compared with B9, B12 is 650-fold lower in Kd: 1940 nM for the first, 3 nM for the second. The second binds more tightly here.

First: B13
Second: B14
The Kd of the first is 2.2-fold higher: 0.87 nM for the first, 0.4 nM for the second. The second binds more tightly here.

First: B15
Second: B16
The Kd of the first is 13-fold lower: 0.92 nM for the first, 12.4 nM for the second. The first binds more tightly here.

Compared with B17, B18 is 5.3-fold higher in Kd: 4.59 nM for the first, 24.5 nM for the second.

First: B19
Second: B20
The Kd of the first is 3.5-fold lower: 8.19 nM for the first, 28.9 nM for the second.

Compared with B21, B22 is 2.1-fold lower in Kd: 2.51 nM for the first, 1.18 nM for the second.

B12 and B13 are within 1.5-fold of each other in koff: 0.00248 s⁻¹ for the first, 0.0018 s⁻¹ for the second.

First: B14
Second: B15
The koff of the first is 8.4-fold higher: 0.00578 s⁻¹ for the first, 0.00069 s⁻¹ for the second.

Going from B16 to B17, the koff falls from 0.029 s⁻¹ to 0.00411 s⁻¹ (7.1-fold).

Compared with B18, B19 is 4.5-fold lower in koff: 0.0269 s⁻¹ for the first, 0.00598 s⁻¹ for the second.

Compared with B20, B21 is 100-fold lower in koff: 0.118 s⁻¹ for the first, 0.00116 s⁻¹ for the second.

Binder B22 has a koff of 0.00358 s⁻¹.

Compared with B12, B13 is 2.5-fold higher in kon: 839000 M⁻¹ s⁻¹ for the first, 2.1e+06 M⁻¹ s⁻¹ for the second.

Compared with B14, B15 is 19-fold lower in kon: 1.45e+07 M⁻¹ s⁻¹ for the first, 750000 M⁻¹ s⁻¹ for the second.

Going from B16 to B17, the kon falls from 2.33e+06 M⁻¹ s⁻¹ to 895000 M⁻¹ s⁻¹ (2.6-fold).

Going from B18 to B19, the kon falls from 1.1e+06 M⁻¹ s⁻¹ to 730000 M⁻¹ s⁻¹ (1.5-fold).

First: B20
Second: B21
The kon of the first is 8.8-fold higher: 4.09e+06 M⁻¹ s⁻¹ for the first, 463000 M⁻¹ s⁻¹ for the second.

B22 showed a kon of 3.04e+06 M⁻¹ s⁻¹.

Biological target: T1, human OPGbp [143-317]
Assay: SPR (BIAcore), immobilized OPGbp [143-317]
Remark: another data set of the same source

First: B25
Second: B26
The Kd of the first is 1.9-fold lower: 0.3 nM for the first, 0.58 nM for the second. The first binds more tightly here.

Compared with B27, B28 is 6.8-fold higher in Kd: 0.43 nM for the first, 2.93 nM for the second.

B29 showed a Kd of 41.3 nM.

B25 and B26 are within 1.5-fold of each other in koff: 0.00108 s⁻¹ for the first, 0.00154 s⁻¹ for the second.

Compared with B27, B28 is 39-fold higher in koff: 0.000197 s⁻¹ for the first, 0.00768 s⁻¹ for the second.

Binder B29 has a koff of 0.0112 s⁻¹.

B25 and B26 are within 1.5-fold of each other in kon: 3.59e+06 M⁻¹ s⁻¹ for the first, 2.67e+06 M⁻¹ s⁻¹ for the second.

Compared with B27, B28 is 5.7-fold higher in kon: 456000 M⁻¹ s⁻¹ for the first, 2.62e+06 M⁻¹ s⁻¹ for the second.

Work on B29 yielded a kon of 272000 M⁻¹ s⁻¹.
